Measured values reported in US5914109.

Tests used:
[1] = biological target: gp120 of HTLV-IIIB (HIV-1 isolate IIIB)
[2] = biological target: gp120 of HIV-1 isolate AL-1 (HIV-1 isolate AL-1)
[3] = biological target: gp120 of HIV-1 isolate DU 7887-7 (HIV-1 isolate DU 7887-7)
[4] = biological target: gp120 of HIV-1 isolate RF (HIV-1 isolate RF) (UniProt P04579)
[5] = biological target: gp120 of HIV-1 isolate SF-2 (virus) (HIV-1 isolate SF-2) (UniProt P03378)
[6] = biological target: gp120 of HIV-1 isolate WMJ-2 (HIV-1 isolate WMJ-2)
[7] = biological target: gp120 of HIVMN (HIV-1 strain MN) (UniProt P05877)
[8] = biological target: gp120 of HTLV-IIIB (HIV-1 isolate IIIB); remark: listed apart in the source
[9] = biological target: heptapeptide GPGRAFY (pin 12) (HIV-1 strain MN); assay: pin ELISA, heptapeptide on pin, mAb at 10 µg/ml
[10] = biological target: heptapeptide GRAFYTT (pin 14) (HIV-1 strain MN); assay: pin ELISA, heptapeptide on pin, mAb at 10 µg/ml
[11] = biological target: heptapeptide HIGPGRA (pin 10) (HIV-1 strain MN); assay: pin ELISA, heptapeptide on pin, mAb at 10 µg/ml
[12] = biological target: heptapeptide IGPGRAF (pin 11) (HIV-1 strain MN); assay: pin ELISA, heptapeptide on pin, mAb at 10 µg/ml
[13] = biological target: heptapeptide PGRAFYT (pin 13) (HIV-1 strain MN); assay: pin ELISA, heptapeptide on pin, mAb at 10 µg/ml
[14] = biological target: heptapeptide RAFYTTK (pin 15) (HIV-1 strain MN); assay: pin ELISA, heptapeptide on pin, mAb at 10 µg/ml
[15] = biological target: 20-mer V3 peptide of HIVSF2 (HIV-1 isolate SF-2); assay: ELISA on V3 peptide coated plates, mAb at 10 µg/ml
[16] = biological target: 22-mer V3 peptide of HXB2 (HIV-1 HXB2 (IIIB)); assay: ELISA on V3 peptide coated plates, mAb at 10 µg/ml
[17] = biological target: 23-mer peptide of the gp120 V3 loop of the MN strain of HIV-1 (HIV-1 strain MN); assay: ELISA on V3 peptide coated plates, mAb at 10 µg/ml
[18] = biological target: V3-CDC4 peptide (HIV-1 isolate CDC4); assay: ELISA on V3 peptide coated plates, mAb at 10 µg/ml
[19] = biological target: V3-NY5 peptide (HIV-1 isolate NY5); assay: ELISA on V3 peptide coated plates, mAb at 10 µg/ml
[20] = biological target: V3-RF peptide (HIV-1 isolate RF); assay: ELISA on V3 peptide coated plates, mAb at 10 µg/ml
[21] = biological target: V3-SC peptide (HIV-1 isolate SC); assay: ELISA on V3 peptide coated plates, mAb at 10 µg/ml
[22] = biological target: V3-WM52 peptide (HIV-1 isolate WM52); assay: ELISA on V3 peptide coated plates, mAb at 10 µg/ml
[23] = biological target: 20-mer V3 peptide of HIVSF2 (HIV-1 isolate SF-2); assay: competition ELISA in solution at equilibrium (Friguet method)
[24] = biological target: 22-mer V3 peptide of HXB2 (HIV-1 HXB2 (IIIB)); assay: as above

human mAb 694-D (antibody) gave a 50% neutralization, CEM-SS syncytium-forming assay, IgG concentration [1] of 0.04 µg/mL, a 90% neutralization, CEM-SS syncytium-forming assay, IgG concentration [1] of 1.4 µg/mL and a neutralization endpoint, MT-4 cell killing assay [2] of 0.04 µg/mL. The neutralization endpoint, MT-4 cell killing assay [3] was over 25 µg/mL, the neutralization endpoint, MT-4 cell killing assay [4] was over 25 µg/mL and the neutralization endpoint, MT-4 cell killing assay [5] was 0.04 µg/mL. The neutralization endpoint, MT-4 cell killing assay [6] was 6.25 µg/mL, the neutralization endpoint, MT-4 cell killing assay [7] was 3.13 µg/mL and the neutralization endpoint, MT-4 cell killing assay [8] was 0.78 µg/mL. For the same substance, the ELISA Reactivity (absorbance at 410 nm) (absorbance at 410 nm) [9] was over 2, the ELISA Reactivity (absorbance at 410 nm) (absorbance at 410 nm) [10] was 1.23 and the ELISA Reactivity (absorbance at 410 nm) (absorbance at 410 nm) [11] was 0.14. The ELISA Reactivity (absorbance at 410 nm) (absorbance at 410 nm) [12] was 1.37, the ELISA Reactivity (absorbance at 410 nm) (absorbance at 410 nm) [13] was 1.4 and the ELISA Reactivity (absorbance at 410 nm) (absorbance at 410 nm) [14] was 0.089. The minimum antigen concentration giving positive results (µg/ml of V3 peptide used to coat) [15] was 0.01, the minimum antigen concentration giving positive results (µg/ml of V3 peptide used to coat) [16] was 0.1 and the minimum antigen concentration giving positive results (µg/ml of V3 peptide used to coat) [17] was 0.01. It also gave a minimum antigen concentration giving positive results (µg/ml of V3 peptide used to coat) [18] of 1, a minimum antigen concentration giving positive results (µg/ml of V3 peptide used to coat) [19] of 1 and a minimum antigen concentration giving positive results (µg/ml of V3 peptide used to coat) [20] of 1. The minimum antigen concentration giving positive results (µg/ml of V3 peptide used to coat) [21] was 0.02, the minimum antigen concentration giving positive results (µg/ml of V3 peptide used to coat) [22] was 0.6 and the Kd [23] was 1.8 µM. The Kd [24] was 12 µM.
